Data taken from the supplement of paper PMC12042874.
± gives the uncertainty stated by the source.

Experiment: amyloid nucleation score (Sup35N fusion, yeast selection) (log enrichment); library NNK2; higher = more nucleation; inactive = no reads after selection
Procedure, shortened: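 Psi-negative yeast expressed Sup35N fused to peptides of 20 random codons. They were induced 24 hours with 100 μM copper sulfate, grown 7 days at 30°C without adenine and uracil, and their plasmid inserts from input and output were Illumina-sequenced. The nucleation score is the DiMSum log enrichment of output over input reads, centred on the mode score of non-aggregating sequences. Sequences with under 100 input reads were excluded.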

Row | Substance | amyloid nucleation score
1 | SPNRQLVKFYFQTTYMVSRL | 3.52 ± 0.071
2 | CFLWHAT | 0.451 ± 0.41
3 | YFFRVSYVEFVRCFGFSCRW | -0.846 ± 0.41
4 | KTLKNEFVDMNQMIYNY | -0.489 ± 0.79
5 | SVYREWLPSSSRVWCMSLSG | -0.317 ± 0.63
6 | WRCDLSNPTFAMYVDAVWAS | 1.16 ± 0.18
7 | VFYCKRVAMDNTSCRNSSYL | -0.536 ± 0.31
8 | RSKLFVISNGRRMHVVLSST | 0.605 ± 0.51
9 | TASMGVVVSDENWE | 0.633 ± 0.14
10 | PMNFYYIAPNICGLREKLWS | 3.62 ± 0.064
11 | NVSRGTKIDNMDRVYFYPEA | -0.055 ± 0.46
12 | FSCWGFMVFRMVGDMLSMKD | -1.58 ± 0.49
13 | ATYNCVHRWGIFTSAYGSKC | -0.653 ± 0.56
14 | KCWNRYKHSDDIYGVGFPSI | -1.09 ± 1
15 | KWSYSPVGKHYLYMMWDGHS | 0.409 ± 0.3
16 | TLWHARTVKRDKWSSYGVGR | 1.83 ± 0.12
17 | FSRADTVF | 2.79 ± 0.13
18 | TYLNLLSNAMNVAWFS | 2.83 ± 0.19
19 | RSQTSWLKDLWQRSLTSDCS | 4.62 ± 0.059
20 | GTVLAIRQLVSRCSGGVVGG | 1.28 ± 0.24
21 | YLTNNLVLWFDICDEERYWW | 5.45 ± 0.059
22 | FEYNRF | 0.691 ± 0.8
23 | SYVYMREKSIGTDSAVLRSM | inactive
24 | IREEGQFSLAVFSYMKVSPY | 2.95 ± 0.071
25 | AKNVKKT | -0.575 ± 0.32

Row | Substance | amyloid nucleation score
26 | PCFRWSRGRKSCECCHVGYM | 0.122 ± 0.25
27 | LSPVVRSMKDVLQCESVDDR | 0.191 ± 0.5
28 | IERRVTWFLTLARCKLPTGQ | 0.796 ± 0.33
29 | GVFASSLLVFQLFFISPSNG | 6.181 ± 0.028
30 | QCFDFTD | 1.1 ± 0.38
31 | PCVPGDYTVAKVAFSTY | -0.011 ± 1.1
32 | GYNHFFTNDIISRGFPVSFK | inactive
33 | LEAISCKWYTLYVVYSCNSW | -0.877 ± 1
34 | CFNVV | 0.43 ± 0.49
35 | SILATYPMVRSRISIMNATL | -0.174 ± 0.28
36 | SFCVLIRYNRFGAIS | 1.24 ± 0.22
37 | LCIIWVVRFYALWWSEPMGW | 1.14 ± 0.18
38 | GSRARNLIASAQYYNG | inactive
39 | THMSEDGFVL | 0.072 ± 0.34
40 | LTLLFGRSVSEWVWNLMDRC | -0.461 ± 0.29
41 | RYFINSMFLGWTPFVSVNLS | -0.107 ± 0.27
42 | RGQMRLQRRLPKLRTSGKLQ | 1.49 ± 0.34
43 | NVVQMMSVEFMPMVHVSAIL | 4.23 ± 0.063
44 | RFFADLTMDQFNIFGGLWQG | 1.09 ± 0.3
45 | IHLWICSISYNAVSIRFTSY | 1.42 ± 0.097
46 | AIVYDH | -0.291 ± 0.63
47 | SLSWLWFLNSKSRMSTDISV | inactive
48 | FLYLNAKSVRASIVWYEVKL | 8.232 ± 0.048
49 | VFEAIMVYSFRRYFPPYGAF | 2.62 ± 0.098
50 | GFGLPTGEVVTNNMALGKTE | -0.844 ± 0.49

Row | Substance | amyloid nucleation score
51 | CSYCFCCVH | 8.29 ± 0.065
52 | CAMDCSSVQGGSTITKCHTM | 0.218 ± 1.1
53 | PWACIIYRLQGSPLINSRFN | 1.04 ± 0.12
54 | DCSSVISKSSLIAVLCFHTN | 5.14 ± 0.058
55 | SLCPCLMIIS | -0.852 ± 0.38
56 | TESIFCSYSWVCVGVMSNYD | 5.1 ± 0.071
57 | YYSPYN | inactive
58 | WCFCSLLCVSGCLRPDPELP | 1.28 ± 0.22
59 | IMSFKFENC | 1.78 ± 0.26
60 | MCPDKARGTMVCTERTPRLM | 0.793 ± 0.15
61 | YNPNCPCICS | 6.823 ± 0.026
62 | NSKTDSVHYYIDVLSPTHIF | -1.09 ± 0.78
63 | GSICAHGECF | 0.57 ± 0.81
64 | NFVLGKTSSVVCSHQSAALT | 0.505 ± 0.18
65 | ICSPFVFGFCGTNFRRVLHR | 6.978 ± 0.033
66 | GLLLGMVFFCGSSTTNMGGI | 5.902 ± 0.051
67 | LFLCYFIRT | 2.17 ± 0.1
68 | GWQGTLVNCLEDYVCYVCHA | 5.34 ± 0.058
69 | VRQRNNWFTMVIVCVISVMA | 3.52 ± 0.13
70 | FMFLEKRVGNVGRYFHEYIG | inactive
71 | VWYRLTDAVYKRLTFLDII | -0.416 ± 0.56
72 | DVYVVIPNYGPQEWVSNYS | -0.341 ± 0.5
73 | TYLVQWMCCRWMPMHFRIMT | -0.369 ± 0.79
74 | WTCDCSLKVFCNM | 4.91 ± 0.056
75 | AILSEGETGFVSDYRQVSEP | -0.004 ± 0.34

Row | Substance | amyloid nucleation score
76 | KASHSVTRSLSVAYI | -0.714 ± 0.38
77 | VRNFYLYVMWPWVQEFY | 7.457 ± 0.061
78 | VILAIGNFSRI | 3.08 ± 0.081
79 | ACLFWIYARRHRLAWFVFIW | -0.37 ± 0.76
80 | RLMHGRIRPLNSKWLTGLG | 1.11 ± 0.34
81 | LVPPVLGAHVSNKVDVILHA | -0.199 ± 1.1
82 | NFNGGCKFKGDYYRKA | 1.14 ± 0.26
83 | APSHPSTVFLYICLLFENKP | -0.128 ± 0.55
84 | FISRVMVSGVLTGLAWPM | 0.151 ± 0.43
85 | NQVSIIHWWAAYDYWSPM | -0.163 ± 0.6
86 | DDVYNSGYKELIRSQ | 0.348 ± 0.25
87 | YCNYVTRDSFAFMSSFFMSA | -1.55 ± 1.1
88 | GIKHVCAWDIN | inactive
89 | FITNFGACRYCCRWHM | 6.184 ± 0.042
90 | WSCNRNCSIFDR | -0.373 ± 0.45
91 | FMVACHCCHTSCEYNFGNTV | 3.96 ± 0.13
92 | IVNLARLKCSMCRECCGRVL | 2.64 ± 0.12
93 | LMYKNCCWFLA | 8.256 ± 0.062
94 | VVYLEIVTRGATGYLVCLPC | -0.437 ± 0.6
95 | RFMVFGNLYDERYTVRFLMR | 3.66 ± 0.089
96 | IAIFWSYWGDVIVYSGMVLE | -0.187 ± 0.55
97 | NWGAWLNWFNLVIYGCRVIN | 6.03 ± 0.079
98 | TVAMSGASQYDEYVSESMMT | 0.061 ± 0.27
99 | KCMRFIL | -0.087 ± 1
100 | MYWLFR | 0.461 ± 0.25

Row | Substance | amyloid nucleation score
101 | LSYNVLLGRIEIPWVSFSRM | 3.94 ± 0.068
102 | SFGDTSKRWLFAVGGCKCRL | 0.371 ± 0.51
103 | YDDHDFNRAGGLTVTNVWMV | 3.64 ± 0.1
104 | IKYNEVVVVRWEANGRFE | 4 ± 0.063
105 | NPRGWAVEMVDYHSTFLKPE | 5.64 ± 0.075
106 | RLMTVI | -0.229 ± 0.28
107 | SYSFRVVDWVYILTYLRKFE | 1.65 ± 0.33
108 | IWPMEWNCTMDYRSPWMRHR | 2.06 ± 0.07
109 | CYSMSRVVSNGEKHYD | 0.675 ± 0.4
110 | KDKGKNDRAIAWVLWGICVL | 0.51 ± 0.51
111 | VFTCGVVPYPYKNTLKYKCF | -0.319 ± 0.4
112 | WRRFRFLLPWSLRPMS | inactive
113 | IKVSFRRTGGLLHLCKWLTC | -0.5 ± 0.33
114 | VEREDVHKGRRFAQACNNLV | 0.495 ± 0.41
115 | LVNACFCACLRNNSFKCDYY | 6.966 ± 0.066
116 | GYVFASSVD | 0.791 ± 0.81
117 | SDSSRFVDKGSYRYKRREWE | -0.161 ± 0.65
118 | LLFKMAYRPLWHDNNMMTCM | 0.112 ± 0.79
119 | IFLSSDLTDGVYSSLYDPID | 0.042 ± 1.1
120 | SRHRVLFFYKFVCLIWV | -0.8 ± 0.74
121 | NALADRRFTISPRIFAYLLL | 0.312 ± 0.65
122 | SCNQDYTDSLSRAELKVDSS | -1.07 ± 0.62
123 | IGTLSRNERASRNTHWDILT | 0.757 ± 0.47
124 | LFVLVREVNVLTFLCPSEDQ | 8.52 ± 0.066
125 | NFSNVFWKFISRWLTAF | inactive

Row | Substance | amyloid nucleation score
126 | YVDLKVACILYPYFSGTRQH | 4.96 ± 0.078
127 | RKLGNLLPPEY | 0.499 ± 0.35
128 | FKILCFSHGNNRM | 2.07 ± 0.19
129 | VSIFMQRR | 2.76 ± 0.13
130 | TFHGNYFVDTSA | inactive
131 | FSMRCYRVVLKYVSTGW | 0.905 ± 0.35
132 | CVTDATVKNYI | -1.42 ± 0.78
133 | SNNHND | inactive
134 | CFIRHISGK | -0.315 ± 0.63
135 | WFDKFRMCEEFAYYFFLPQW | -0.856 ± 0.63
136 | LDISSDPFFSS | -1.25 ± 1.1
137 | VSDRLTMFKSVRSVWMCWGQ | -0.146 ± 0.61
138 | RMLGFD | -0.147 ± 1.1
139 | HFDSYNRNSMSSRPSVGILS | -0.441 ± 1.1
140 | QSLFFVI | -0.395 ± 0.48
141 | QEYLLLVAAGKHVNVDKTYL | 0.594 ± 0.81
142 | TIGEVYGYLRSWIYWGSEST | 0.154 ± 0.46
143 | FWSRKCSFCFNGASVSGEVM | -0.088 ± 1.1
144 | CVGDAALWWVVFIYGEHSRV | 0.022 ± 0.41
145 | DSLTCCIS | 3.37 ± 0.093
146 | SPCFWMLPVKKPPACR | 5.082 ± 0.039
147 | CRRHVMFYTCMLE | 4.27 ± 0.064
148 | PVIRRLEFGWQNASYG | -0.564 ± 0.76
149 | RMFIVHSCSTWLTNNGLNHM | 5.318 ± 0.036
150 | LISEVALGFAPMKIVRGFLD | -0.284 ± 0.56

Row | Substance | amyloid nucleation score
151 | EAWRNLYFGLSRRHRRYGSL | 1.49 ± 0.18
152 | VTVRAQY | -0.497 ± 0.45
153 | TNSSRISLNLGVLRGAQKDS | -1.08 ± 0.45
154 | ANKTSPICSCVFNEL | 6.3 ± 0.088
155 | VSGSSHVVKWVMKEGVIFI | inactive
156 | ALEVLTTLRISLPSHKGSSF | 5.533 ± 0.051
157 | CISTLIGTRPTAYLLLLRDI | inactive
158 | VVRHLWMTKYCRFMFISTVY | -0.898 ± 0.34
159 | HNYAVS | -0.711 ± 0.54
160 | VDLGMPSLWRSDGASPGGFF | 0.277 ± 0.49
161 | RFVYMDIRDMAGWTPLYVYP | -1.23 ± 1
162 | LSNLMRISMIFEYAAPLFRF | inactive
163 | SQPHYGRASACRSSSSR | 0.831 ± 0.51
164 | YGYCIISHTLNLLLGQYLCY | 4.99 ± 0.068
165 | KIVGCGHSRMLIMTWC | 0.733 ± 0.56
166 | MSPYLWYGWLEAGLLGIRTL | 0.871 ± 0.34
167 | LGHTH | 1.06 ± 0.53
168 | LNHIYYLAIQTTACILTMGE | -1.07 ± 0.63
169 | FTRYLTFNFRLETYYRGSHG | 1.44 ± 0.18
170 | KGFNKY | -0.911 ± 0.43
